Consider one molecule from PMC8528823 (2021).

For the experiment, the target named is SARS-CoV-2 WT RBD (SARS-CoV-2, UniProt P0DTC2 319-541). The experiment in a line: SPR. Background: Surface plasmon resonance follows binding to a sensor surface in real time, without labels.

B1: Mouse Fc (mFc) tagged mink ACE2 (Fc fusion)
chain: QSTTEDLAKTFLEKFNYEAEELSYQNSLASWNYNTNITDENIQKMNIAGAKWSAFYEEESQHAKTYPLEEIQDPIIKRQLRALQQSGSSVLSADKRERLNTILNAMSTIYSTGKACNPNNPQECLLLEPGLDDIMENSKDYNERLWAWEGWRSEVGKQLRPLYEEYVALKNEMARANNYEDYGDYWRGDYEEEWADGYNYSRNQLIEDVEHTFTQIKPLYEHLHAYVRAKLMDAYPSRISPTGCLPAHLLGDMWGRFWTNLYPLMVPFGQKPNIDVTDAMVNQSWDARRIFKEAEKFFVSVGLPNMTEGFWQNSMLTEPGDNRKVVCHPTAWDLGKHDFRIKMCTKVTMDDFLTAHHEMGHIQYDMAYAAQPFLLRNGANEGFHEAVGEIMSLSAATPNHLKNIGLLPPDFSEDSETDINFLLKQALTIVGTLPFTYMLEKWRWMVFKGEIPKEQWMQKWWEMKRDIVGVVEPLPHDETYCDPAALFHVANDYSFIRYYTRTIYQFQFQEALCQIAKHEGPLYKCDISNSREAGQKLHEMLSLGRSKPWTFALERVVGAKTMDVRPLLNYFEPLFTWLKEQNRNSFVGWNTDWSPYADQSIKVRISLKSALGEKAYEWNDNEMYFFQSSIAYAMREYFSKVKKQTIPFVDKDVRVSDLKPRISFNFIVTSPENMSDIIPRADVEEAIRKSRGRINDAFRLDDNSLEFLGIQPTLEPPYQPPVT
For orientation: koff means a measure of how fast the partners let go of each other. A low value points to a long-lived complex. For the molecule B1, the off-rate constant (koff) came to 1.65 s⁻¹.
